Patent US20200157542, “Bispecific Aptamer for Treating Cancer” (Augusta University Research Institute, Inc., published 2020)

Key:
[1] = biological target: T1, EpCAM (human, UniProt P16422 P16422:24-265); assay: ELONA; bridging of 1 uM free EpCAM to plate-immobilized CD44; simple mixture of the two aptamers gave background only; conditions: tags: Thermo Fisher Scientific; label: 3'-Cy5 on EpCAM strand for flow cytometry; two aptamers joined by 23 bp dsRNA adaptor with 2-3 unpaired base linkers
T1 sequence: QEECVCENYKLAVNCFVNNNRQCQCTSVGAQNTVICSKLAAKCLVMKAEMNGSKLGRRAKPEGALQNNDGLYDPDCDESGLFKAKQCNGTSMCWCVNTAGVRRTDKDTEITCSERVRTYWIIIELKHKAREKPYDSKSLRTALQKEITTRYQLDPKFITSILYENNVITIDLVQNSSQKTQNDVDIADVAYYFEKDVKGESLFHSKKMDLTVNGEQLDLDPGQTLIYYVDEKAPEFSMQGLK
Protocol: Serially diluted recombinant human CD44 protein (0-500 nM) was loaded into 96-well microtiter plates at 50 μg/well in triplicates and incubated overnight at 4° C. Plates were further blocked with 5% BSA/sperm DNA (500 μg/ml)/yeast tRNA (500 μg/ml)/0.05% Tween-20 in PBS/T buffer overnight. CD44-EpCAM conjugates or simply mixed CD44 and EpCAM aptamers were incubated with 1 μM recombinant human EpCAM for 4 h at room temperature. For simply mixed CD44 and EpCAM, prior putting CD44 and EpCAM aptamers together, CD44 aptamer was blocked with ssDNA (5′-[…]-3′) (SEQ ID NO: 11). […] Detection of HRP was performed by incubating with 100 µL/well soluble Turbo TMB-ELISA substrate for 5 min, then reaction was quenched with 100 μl/well Stop solution and the absorbance at 450 nm was measured using TECAN Infinite M 200 plate reader.
The binding of bispecific CD44-EpCAM aptamer was examined by ELISA (FIG. 1B). […] As expected (FIG. 1C), CD44-EpCAM bispecific aptamers successfully linked to plate-immobilized CD44 protein and free EpCAM proteins, yielding CD44 protein concentration-dependent positive signals, whereas only the background signal was detected in a control experiment with a simple mixture of CD44 aptamer and EpCAM aptamer. […]

[2] = biological target: human serum albumin (HSA) (human, UniProt P02768 P02768:25-609); assay: ELONA; immobilized HSA control, no positive signal; conditions: label: 3'-Cy5 on EpCAM strand for flow cytometry; two aptamers joined by 23 bp dsRNA adaptor with 2-3 unpaired base linkers
Chain of human serum albumin (HSA) (P02768 25-609, one chain of several): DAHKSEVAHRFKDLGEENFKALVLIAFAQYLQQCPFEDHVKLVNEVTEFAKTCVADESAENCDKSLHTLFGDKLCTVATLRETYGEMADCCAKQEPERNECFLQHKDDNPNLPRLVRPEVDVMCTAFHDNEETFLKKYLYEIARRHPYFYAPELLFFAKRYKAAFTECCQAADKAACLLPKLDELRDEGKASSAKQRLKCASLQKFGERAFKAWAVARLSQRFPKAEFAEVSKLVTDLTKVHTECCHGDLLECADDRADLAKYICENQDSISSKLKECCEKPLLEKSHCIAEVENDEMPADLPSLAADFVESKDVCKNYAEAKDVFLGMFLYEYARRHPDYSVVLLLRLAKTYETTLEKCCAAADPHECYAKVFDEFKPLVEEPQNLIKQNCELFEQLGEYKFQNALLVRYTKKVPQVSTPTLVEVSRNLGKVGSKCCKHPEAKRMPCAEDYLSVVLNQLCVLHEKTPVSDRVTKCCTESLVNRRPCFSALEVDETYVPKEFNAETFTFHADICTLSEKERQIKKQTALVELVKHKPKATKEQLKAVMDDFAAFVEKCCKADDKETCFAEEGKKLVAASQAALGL

B1: CD44-EpCAM bispecific aptamer (ssRNA)
RNA 1: GGGAUGGAUCCAAGCUUACUGGCAUCUGGAUUUGCGCGUGCCAGAAUAAAGAGUAUAACGUGUGAAUGGGAAGCUUCGAUAGGAAUUCGGAAAAGCUUGUUCAGGAGAUGAAAUU
RNA 2: GCGACUGGUUACCCGGUCGUAAAAUUUCAUCUCCUGAACAAGCUU
modifications: RNA (U for T in printed DNA template), 2'-F pyrimidines throughout
[1]
  binding result: binds
[2]
  binding result: no binding
